According to article PMC2626280:
Read-outs that look alike come from different tables or passages of the source. Values belong to the substance of their own block, whether it stands above or below them.

What was measured:
[1] = biological target: purified skeletal muscle actin (rabbit) (UniProt P68135); experiment: inhibition of actin polymerization (ultracentrifugation assay); apparent; skeletal muscle actin (18 µM) with increasing GST-RPEL (350–422 aa); 100 mM KCl, 2 mM MgCl2, 10 mM Tris-HCl pH 7.8, 20°C 60 min (legend: room temperature 30 minutes); 130,000 g 15 min; fraction of depolymerized actin by densitometry, nonlinear regression
[2] = biological target: actin (Oryctolagus cuniculus) (UniProt P68135); conditions: cited from earlier work
[3] = biological target: actin (Oryctolagus cuniculus) (UniProt P68135); conditions: cited from earlier work; remark: listed apart in the source
[4] = biological target: actin (Oryctolagus cuniculus) (UniProt P68135); conditions: cited from earlier work; remark: listed apart in the source

Kd [1]: 0.018 µM | stoichiometry N [1]: 1.21
Substance: GST-RPEL construct of scapinin, 350–422 aa (domain or fragment)

Substance: MAL RPEL1 (from UniProt Q8K4J6)
Kd [2]: 5.4 µM

Substance: MAL RPEL2 (from UniProt Q8K4J6)
Kd [3]: 2.3 µM

Substance: MAL RPEL3 (from UniProt Q8K4J6)
Kd [4]: 18.8 µM
